According to patent publication US20150132305A1 (ADHERON THERAPEUTICS, published 2015):

T1: recombinant Cad-11 EC1 human IgG1 fusion protein (R&D Systems Cat. No. 1790-CA-050) (human, UniProt P55287 54-617, limits assumed)
T1 construct: bought; also called recombinant human Cad-11 EC1; recombinant human Cad-11 fusion protein; not shown: human IgG1 part
T1 sequence: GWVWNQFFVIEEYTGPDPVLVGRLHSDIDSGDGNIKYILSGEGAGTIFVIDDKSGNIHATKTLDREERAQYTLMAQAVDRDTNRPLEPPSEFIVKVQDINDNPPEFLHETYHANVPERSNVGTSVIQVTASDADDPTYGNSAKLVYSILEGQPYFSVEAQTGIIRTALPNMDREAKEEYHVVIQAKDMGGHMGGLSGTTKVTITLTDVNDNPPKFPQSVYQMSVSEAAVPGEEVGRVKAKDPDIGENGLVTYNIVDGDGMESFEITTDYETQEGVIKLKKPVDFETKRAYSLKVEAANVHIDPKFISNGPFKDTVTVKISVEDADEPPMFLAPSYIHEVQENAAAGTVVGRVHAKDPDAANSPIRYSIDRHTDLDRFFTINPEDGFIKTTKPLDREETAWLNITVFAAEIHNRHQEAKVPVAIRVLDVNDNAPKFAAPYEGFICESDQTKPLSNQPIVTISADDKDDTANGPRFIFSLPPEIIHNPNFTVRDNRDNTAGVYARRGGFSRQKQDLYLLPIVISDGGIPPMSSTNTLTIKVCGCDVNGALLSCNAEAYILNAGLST


Experiments:
[1] = target: T1, recombinant Cad-11 EC1 human IgG1 …; assay: competition ELISA against biotinylated SYN0012/H1M1 (competitor) on coated fusion protein; text says values are normalised to the IC50 of SYN0012
Procedure: (§1) The binding of the purified humanized composite variant antibodies (SDP011 to SDP151) to a recombinant Cad-11 EC1 human IgG1 fusion protein was assessed in a competition binding ELISA. A dilution series from 5 μg/ml to 0.0022 μg/ml of the humanized or control (SYN0012/H1M1) antibodies was premixed with a constant concentration of biotinylated murine anti-Cad-11 antibody, SYN0012/H1M1 (0.1 μg/ml, final concentration), before incubating for 1 hour at room temperature on a NUNC-IIMMUNO™ MAXISORP™ 96 well flat bottom microtitre plate (Fisher Cat. No. DIS-971-030J) pre-coated with 0.25 μg/ml recombinant human Cad-11 EC1 (R&D Systems Cat. No. 1790-CA-050) diluted in PBS. The binding of the biotinylated mAb was detected with streptavidin-HRP (Sigma Cat. No. 55512) and tetramethylbenzidine (TMB) substrate (Invitrogen Cat. No. 00-2023).
(§2) All of the humanized anti-Cad-11 antibodies efficiently competed with SYN0012 for binding to the Cad-11 fusion protein (FIGS. 38A to C). […] The curves were used to calculate IC50 values for each antibody and these were normalized to the IC50 of SYN0012, which was included on each ELISA plate so that comparisons between plates could be made (Table 3). The expression levels of each cell line and the calculated isoelectric point (pI) of each antibody are also shown (Table 3).
The relative IC50 was calculated by dividing the value for the test antibody by that of SYN0012. Antibody expression levels given are for static cultures in T flasks. PI are calculated.

[2] = target: T1, recombinant Cad-11 EC1 human IgG1 …; assay: competition ELISA on coated recombinant human Cad-11 EC1 fusion protein against biotinylated SYN0012 (0.1 µg/ml)
Procedure: as §1, §2

[3] = target: T1, recombinant Cad-11 EC1 human IgG1 …; assay: competition ELISA: antibody dilution series premixed with 0.1 µg/ml biotinylated SYN0012/H1M1, plate coated with recombinant human Cad-11 EC1 fusion protein, streptavidin-HRP, OD450
Procedure: as §1, §2

| IC50 [1] [mg/L] | IC50 (read off the curve) [2] [mg/L] | IC50 (read off the curve) [3] [mg/L] | Binder |
| --- | --- | --- | --- |
| 0.57 |  |  | SDP091 humanized anti-Cad-11 EC1 antibody (Vκ2/VH4) (antibody, IgG4, V domains shown, humanized IgG4 (S241P), kappa) VH: EVQLVQSGAEVKKPGASVKVSCKASGYSFTGYFMNWVRQAPGQGLEWIGRINPYTGDTFYNQKFKGRATITVDKSTSTAYMELSSLRSEDTAVYYCGRLGSRYWYFDVWGQGTTVTVSS VL: DVLMTQTPLSSPVTLGQPASISCRSSQSIIHSNGNTYLEWYLQKPGQSPQLLIYKVSNRFSGVPDRFSGSGSGTDFTLKISRVEAEDVGVYYCFQGSHVPWTFGQGTKLEIK |
| 0.61 |  | ~0.2 | SDP141 humanized anti-Cad-11 EC1 antibody (Vκ3/VH4) (antibody, IgG4, V domains shown, humanized IgG4 (S241P), kappa) VH: EVQLVQSGAEVKKPGASVKVSCKASGYSFTGYFMNWVRQAPGQGLEWIGRINPYTGDTFYNQKFKGRATITVDKSTSTAYMELSSLRSEDTAVYYCGRLGSRYWYFDVWGQGTTVTVSS VL: DVVMTQTPLSSPVTLGQPASISCRSSQSIIHSNGNTYLEWYLQKPGQSPQLLIYKVSNRFSGVPDRFSGSGSGTDFTLKISRVEAEDVGVYYCFQGSHVPWTFGQGTKLEIK |
| 0.55 |  | ~0.2 | SDP131 humanized anti-Cad-11 EC1 antibody (Vκ3/VH3) (antibody, IgG4, V domains shown, humanized IgG4 (S241P), kappa) VH: EVQLVQSGAEVKKPGASVKISCKASGYSFTGYFMNWVRQAPGQGLEWIGRINPYTGDTFYNQKFKGRATLTVDKSTSTAYMELSSLRSEDTAVYYCGRLGSRYWYFDVWGQGTTVTVSS VL: DVVMTQTPLSSPVTLGQPASISCRSSQSIIHSNGNTYLEWYLQKPGQSPQLLIYKVSNRFSGVPDRFSGSGSGTDFTLKISRVEAEDVGVYYCFQGSHVPWTFGQGTKLEIK |
| 0.68 |  | ~0.2 | SDP111 humanized anti-Cad-11 EC1 antibody (Vκ3/VH1) (antibody, IgG4, V domains shown, humanized IgG4 (S241P), kappa) VH: EVQLVQSGPELKKPGASVKISCKASGYSFTGYFMNWVKQAHGQGLEWIGRINPYTGDTFYNQKFKGRATLTVDKSSSTAYMELVSLSSEDSAVYYCGRLGSRYWYFDVWGQGTTVTVSS VL: DVVMTQTPLSSPVTLGQPASISCRSSQSIIHSNGNTYLEWYLQKPGQSPQLLIYKVSNRFSGVPDRFSGSGSGTDFTLKISRVEAEDVGVYYCFQGSHVPWTFGQGTKLEIK |
| 0.53 |  |  | SDP101 humanized anti-Cad-11 EC1 antibody (Vκ2/VH5) (antibody, IgG4, V domains shown, humanized IgG4 (S241P), kappa) VH: EVQLVQSGAEVKKPGASVKVSCKASGYSFTGYFMNWVRQAPGQGLEWIGRINPYTGDTFYNQKFKGRVTITVDKSTSTAYMELSSLRSEDTAVYYCGRLGSRYWYFDVWGQGTTVTVSS VL: DVLMTQTPLSSPVTLGQPASISCRSSQSIIHSNGNTYLEWYLQKPGQSPQLLIYKVSNRFSGVPDRFSGSGSGTDFTLKISRVEAEDVGVYYCFQGSHVPWTFGQGTKLEIK |
| 0.52 |  | ~0.2 | SDP121 humanized anti-Cad-11 EC1 antibody (Vκ3/VH2) (antibody, IgG4, V domains shown, humanized IgG4 (S241P), kappa) VH: EVQLVQSGAEVKKPGASVKISCKASGYSFTGYFMNWVKQAPGQGLEWIGRINPYTGDTFYNQKFKGRATLTVDKSTSTAYMELSSLRSEDTAVYYCGRLGSRYWYFDVWGQGTTVTVSS VL: DVVMTQTPLSSPVTLGQPASISCRSSQSIIHSNGNTYLEWYLQKPGQSPQLLIYKVSNRFSGVPDRFSGSGSGTDFTLKISRVEAEDVGVYYCFQGSHVPWTFGQGTKLEIK |
| 0.72 |  | ~0.2 | SDP151 humanized anti-Cad-11 EC1 antibody (Vκ3/VH5) (antibody, IgG4, V domains shown, humanized IgG4 (S241P), kappa) VH: EVQLVQSGAEVKKPGASVKVSCKASGYSFTGYFMNWVRQAPGQGLEWIGRINPYTGDTFYNQKFKGRVTITVDKSTSTAYMELSSLRSEDTAVYYCGRLGSRYWYFDVWGQGTTVTVSS VL: DVVMTQTPLSSPVTLGQPASISCRSSQSIIHSNGNTYLEWYLQKPGQSPQLLIYKVSNRFSGVPDRFSGSGSGTDFTLKISRVEAEDVGVYYCFQGSHVPWTFGQGTKLEIK |

More lines, now with the values behind:

| Binder | IC50 [1] [mg/L] | IC50 (read off the curve) [2] [mg/L] | IC50 (read off the curve) [3] [mg/L] |
| --- | --- | --- | --- |
| SDP081 humanized anti-Cad-11 EC1 antibody (Vκ2/VH3) (antibody, IgG4, V domains shown, humanized IgG4 (S241P), kappa) VH: EVQLVQSGAEVKKPGASVKISCKASGYSFTGYFMNWVRQAPGQGLEWIGRINPYTGDTFYNQKFKGRATLTVDKSTSTAYMELSSLRSEDTAVYYCGRLGSRYWYFDVWGQGTTVTVSS VL: DVLMTQTPLSSPVTLGQPASISCRSSQSIIHSNGNTYLEWYLQKPGQSPQLLIYKVSNRFSGVPDRFSGSGSGTDFTLKISRVEAEDVGVYYCFQGSHVPWTFGQGTKLEIK | 0.42 |  |  |
| SDP021 humanized anti-Cad-11 EC1 antibody (Vκ1/VH2) (antibody, IgG4, V domains shown, humanized IgG4 (S241P), kappa) VH: EVQLVQSGAEVKKPGASVKISCKASGYSFTGYFMNWVKQAPGQGLEWIGRINPYTGDTFYNQKFKGRATLTVDKSTSTAYMELSSLRSEDTAVYYCGRLGSRYWYFDVWGQGTTVTVSS VL: DVLMTQTPLSSPVTLGQPASISCRSSQSIIHSNGNTYLEWYLQKPGQSPQLLIYKVSNRFSGVPDRFTGSGSGTDFTLKISRVEAEDVGVYYCFQGSHVPWTFGQGTKLEIK | 0.67 | ~0.1 |  |
| SDP031 humanized anti-Cad-11 EC1 antibody (Vκ1/VH3) (antibody, IgG4, V domains shown, humanized IgG4 (S241P), kappa) VH: EVQLVQSGAEVKKPGASVKISCKASGYSFTGYFMNWVRQAPGQGLEWIGRINPYTGDTFYNQKFKGRATLTVDKSTSTAYMELSSLRSEDTAVYYCGRLGSRYWYFDVWGQGTTVTVSS VL: DVLMTQTPLSSPVTLGQPASISCRSSQSIIHSNGNTYLEWYLQKPGQSPQLLIYKVSNRFSGVPDRFTGSGSGTDFTLKISRVEAEDVGVYYCFQGSHVPWTFGQGTKLEIK | 0.84 | ~0.2 |  |
| SDP041 humanized anti-Cad-11 EC1 antibody (Vκ1/VH4) (antibody, IgG4, V domains shown, humanized IgG4 (S241P), kappa) VH: EVQLVQSGAEVKKPGASVKVSCKASGYSFTGYFMNWVRQAPGQGLEWIGRINPYTGDTFYNQKFKGRATITVDKSTSTAYMELSSLRSEDTAVYYCGRLGSRYWYFDVWGQGTTVTVSS VL: DVLMTQTPLSSPVTLGQPASISCRSSQSIIHSNGNTYLEWYLQKPGQSPQLLIYKVSNRFSGVPDRFTGSGSGTDFTLKISRVEAEDVGVYYCFQGSHVPWTFGQGTKLEIK | 0.65 | ~0.1 |  |
| SDP011 humanized anti-Cad-11 EC1 antibody (Vκ1/VH1) (antibody, IgG4, V domains shown, humanized IgG4 (S241P), kappa) VH: EVQLVQSGPELKKPGASVKISCKASGYSFTGYFMNWVKQAHGQGLEWIGRINPYTGDTFYNQKFKGRATLTVDKSSSTAYMELVSLSSEDSAVYYCGRLGSRYWYFDVWGQGTTVTVSS VL: DVLMTQTPLSSPVTLGQPASISCRSSQSIIHSNGNTYLEWYLQKPGQSPQLLIYKVSNRFSGVPDRFTGSGSGTDFTLKISRVEAEDVGVYYCFQGSHVPWTFGQGTKLEIK | 0.91 | ~0.2 |  |
